Results published in article PMC12816604, “Structural basis of double-stranded RNA recognition by the J2 monoclonal antibody”.

Key:
Assay in all cases: BLI; 100 mM KCl; BLI: 25 mM Tris-HCl pH 7.5, 2 mM MgCl2, KCl 100 mM (6-20 bp and mutants), 200 mM (30 bp) or 400 mM (40, 50 bp), 25 C; IgG immobilised on Protein A probes
Settings in all cases: protein: recombinant;recombinant; tags: His8 (C-term);; chain copies: 2;2; blunt
[1] = biological target: J2 IgG heavy chain (HC-TEV-His8) Y52F;J2 IgG light chain (Mus musculus;Mus musculus, UniProt ; ;, Y52F|)
J2 IgG heavy chain (HC-TEV-His8) Y52F;J2 IgG light chain, sequence (chain, as listed by the source Y52F| | Y52F Y52F, chain 1 of 2): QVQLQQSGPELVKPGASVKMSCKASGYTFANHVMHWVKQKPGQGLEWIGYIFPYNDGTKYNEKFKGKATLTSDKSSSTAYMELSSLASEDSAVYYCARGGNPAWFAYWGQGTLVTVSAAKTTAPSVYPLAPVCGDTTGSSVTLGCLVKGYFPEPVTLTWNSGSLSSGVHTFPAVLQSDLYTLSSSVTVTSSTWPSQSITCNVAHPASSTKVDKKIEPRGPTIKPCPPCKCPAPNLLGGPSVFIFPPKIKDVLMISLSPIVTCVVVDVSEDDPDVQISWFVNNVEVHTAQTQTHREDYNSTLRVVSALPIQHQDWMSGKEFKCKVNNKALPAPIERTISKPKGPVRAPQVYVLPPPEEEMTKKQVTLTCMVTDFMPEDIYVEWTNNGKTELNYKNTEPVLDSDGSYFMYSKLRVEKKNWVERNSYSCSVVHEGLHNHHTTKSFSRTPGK
J2 IgG heavy chain (HC-TEV-His8) Y52F;J2 IgG light chain, sequence (chain, as listed by the source Y52F| | Y52F Y52F, chain 2 of 2): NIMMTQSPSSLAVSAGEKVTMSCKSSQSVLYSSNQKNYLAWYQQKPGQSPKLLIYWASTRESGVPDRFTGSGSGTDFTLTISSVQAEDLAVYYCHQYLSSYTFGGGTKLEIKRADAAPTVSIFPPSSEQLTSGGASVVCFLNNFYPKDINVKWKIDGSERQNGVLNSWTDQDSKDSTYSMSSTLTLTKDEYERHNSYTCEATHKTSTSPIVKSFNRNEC

[2] = biological target: J2 IgG heavy chain (HC-TEV-His8) Y50F;J2 IgG light chain (Mus musculus;Mus musculus, UniProt ; ;, Y50F|)
J2 IgG heavy chain (HC-TEV-His8) Y50F;J2 IgG light chain, sequence (chain, as listed by the source Y50F| | Y50F Y50F, chain 1 of 2): as the sequence (chain, as listed by the source Y52F| | Y52F Y52F, chain 1 of 2) above, with Y50F, F52Y counted along it
J2 IgG heavy chain (HC-TEV-His8) Y50F;J2 IgG light chain, sequence (chain, as listed by the source Y50F| | Y50F Y50F, chain 2 of 2): as the sequence (chain, as listed by the source Y52F| | Y52F Y52F, chain 2 of 2) above

[3] = biological target: J2 IgG light chain Y31F;J2 IgG heavy chain (HC-TEV-His8) (Mus musculus;Mus musculus, UniProt ; ;, Y31F|)
J2 IgG light chain Y31F;J2 IgG heavy chain (HC-TEV-His8), sequence (chain, as listed by the source Y31F| | Y31F Y31F, chain 1 of 2): as the sequence (chain, as listed by the source Y52F| | Y52F Y52F, chain 2 of 2) above, with Y31F counted along it
J2 IgG light chain Y31F;J2 IgG heavy chain (HC-TEV-His8), sequence (chain, as listed by the source Y31F| | Y31F Y31F, chain 2 of 2): as the sequence (chain, as listed by the source Y52F| | Y52F Y52F, chain 1 of 2) above, with F52Y counted along it

[4] = biological target: J2 IgG heavy chain (HC-TEV-His8) A30P;J2 IgG light chain (Mus musculus;Mus musculus, UniProt ; ;, A30P|)
J2 IgG heavy chain (HC-TEV-His8) A30P;J2 IgG light chain, sequence (chain, as listed by the source A30P| | A30P A30P, chain 1 of 2): as the sequence (chain, as listed by the source Y52F| | Y52F Y52F, chain 1 of 2) above, with A30P, F52Y counted along it
J2 IgG heavy chain (HC-TEV-His8) A30P;J2 IgG light chain, sequence (chain, as listed by the source A30P| | A30P A30P, chain 2 of 2): as the sequence (chain, as listed by the source Y52F| | Y52F Y52F, chain 2 of 2) above

[5] = biological target: J2 IgG heavy chain (HC-TEV-His8) Y54F;J2 IgG light chain (Mus musculus;Mus musculus, UniProt ; ;, Y54F|)
J2 IgG heavy chain (HC-TEV-His8) Y54F;J2 IgG light chain, sequence (chain, as listed by the source Y54F| | Y54F Y54F, chain 1 of 2): as the sequence (chain, as listed by the source Y52F| | Y52F Y52F, chain 1 of 2) above, with F52Y, Y54F counted along it
J2 IgG heavy chain (HC-TEV-His8) Y54F;J2 IgG light chain, sequence (chain, as listed by the source Y54F| | Y54F Y54F, chain 2 of 2): as the sequence (chain, as listed by the source Y52F| | Y52F Y52F, chain 2 of 2) above

[6] = biological target: J2 IgG heavy chain (HC-TEV-His8);J2 IgG light chain (Mus musculus;Mus musculus, UniProt ; ;, |)
J2 IgG heavy chain (HC-TEV-His8);J2 IgG light chain, sequence (chain, as listed by the source |, chain 1 of 2): as the sequence (chain, as listed by the source Y52F| | Y52F Y52F, chain 1 of 2) above, with F52Y counted along it
J2 IgG heavy chain (HC-TEV-His8);J2 IgG light chain, sequence (chain, as listed by the source |, chain 2 of 2): as the sequence (chain, as listed by the source Y52F| | Y52F Y52F, chain 2 of 2) above

[7] = biological target: J2 IgG light chain Y31A;J2 IgG heavy chain (HC-TEV-His8) (Mus musculus;Mus musculus, UniProt ; ;, Y31A|)
J2 IgG light chain Y31A;J2 IgG heavy chain (HC-TEV-His8), sequence (chain, as listed by the source Y31A| | Y31A Y31A, chain 1 of 2): as the sequence (chain, as listed by the source Y52F| | Y52F Y52F, chain 2 of 2) above, with Y31A counted along it
J2 IgG light chain Y31A;J2 IgG heavy chain (HC-TEV-His8), sequence (chain, as listed by the source Y31A| | Y31A Y31A, chain 2 of 2): as the sequence (chain, as listed by the source Y52F| | Y52F Y52F, chain 1 of 2) above, with F52Y counted along it

[8] = biological target: J2 IgG light chain Y38F;J2 IgG heavy chain (HC-TEV-His8) (Mus musculus;Mus musculus, UniProt ; ;, Y38F|)
J2 IgG light chain Y38F;J2 IgG heavy chain (HC-TEV-His8), sequence (chain, as listed by the source Y38F| | Y38F Y38F, chain 1 of 2): as the sequence (chain, as listed by the source Y52F| | Y52F Y52F, chain 2 of 2) above, with Y38F counted along it
J2 IgG light chain Y38F;J2 IgG heavy chain (HC-TEV-His8), sequence (chain, as listed by the source Y38F| | Y38F Y38F, chain 2 of 2): as the sequence (chain, as listed by the source Y52F| | Y52F Y52F, chain 1 of 2) above, with F52Y counted along it

[9] = biological target: J2 IgG heavy chain (HC-TEV-His8) Y54A;J2 IgG light chain (Mus musculus;Mus musculus, UniProt ; ;, Y54A|)
J2 IgG heavy chain (HC-TEV-His8) Y54A;J2 IgG light chain, sequence (chain, as listed by the source Y54A| | Y54A Y54A, chain 1 of 2): as the sequence (chain, as listed by the source Y52F| | Y52F Y52F, chain 1 of 2) above, with F52Y, Y54A counted along it
J2 IgG heavy chain (HC-TEV-His8) Y54A;J2 IgG light chain, sequence (chain, as listed by the source Y54A| | Y54A Y54A, chain 2 of 2): as the sequence (chain, as listed by the source Y52F| | Y52F Y52F, chain 2 of 2) above

B1: 20-bp dsRNA (dsRNA)
RNA 1: GUUGUAAAGAAGGUCAAUAU
RNA 2: AUAUUGACCUUCUUUACAAC
What does the source list for B1?
Kd [1]: 220 nM; Kd [2]: 430 ± 40 nM; Kd [3]: 360 ± 60 nM; Kd [4]: 120 ± 20 nM; Kd [5]: 710 ± 170 nM; Kd [6]: 120 ± 10 nM; Kd [7]: 940 ± 560 nM; Kd [8]: 150 ± 20 nM; Kd [9]: 300 ± 30 nM
